Measured values from paper PMC6192581 (2018).
Read-outs that look alike come from different tables or passages of the source.

Columns and labels:
[1] = biological target: T1, LDL (apolipoprotein B-100) (Homo sapiens, UniProt P04114)
[2] = biological target: T1, LDL (apolipoprotein B-100); remark: listed apart in the source

- Kd [1]: 0.58 nM
- Kd [2]: 7.01 nM
B1: LDL receptor 1-789 (protein)
chain: not shown
